The target of assay [1] is human airway smooth muscle cell mannose receptor (huASMC-MR) (human) (UniProt Q9UBG0). The experiment in a line: flow cytometry (cell sorting) of bovine airway smooth muscle cells transfected with full-length huASMC-MR cDNA plasmid; vector control 57/1718 cells.
The target of assay [2] is bovine airway smooth muscle cell mannose receptor (bovine). Briefly: cell-based or functional assay.

The substance “FITC-ManBSA (FITC-labelled mannosylated bovine serum albumin) (from UniProt P02769 25-607)” gave a percent of cells with increased fluorescence intensity in assay [1] of 61%. Substance “b hexosaminidase A (human placental β-hexosaminidase, Sigma) (from UniProt P06865 89-529; P07686 122-556) (enzyme)” had a b hexosaminidase-induced mitogenesis in bovine ASMC, inhibition by antisense huASMC-MR morpholino oligonucleotides (5 µM) in assay [2] of 37%.

The values above are taken from US20050085442A1.
